Results on one molecule are retold here after publication PMC6156121 (Science Advances, 2018).

The test addresses purified mTOR protein (Origene) (human, UniProt P42345 1-2549). Description: co-IP.

B1: purified ETV7 protein (Origene) (natural protein)
chain: MQEGELAISPISPVAAMPPLGTHVQARCEAQINLLGEGGICKLPGRLRIQPALWSREDVLHWLRWAEQEYSLPCTAEHGFEMNGRALCILTKDDFRHRAPSSGDVLYELLQYIKTQRRALVCGPFFGGIFRLKTPTQHSPVPPEEVTGPSQMDTRRGHLLQPPDPGLTSNFGHLDDPGLARWTPGKEESLNLCHCAELGCRTQGVCSFPAMPQAPIDGRIADCRLLWDYVYQLLLDTRYEPYIKWEDKDAKIFRVVDPNGLARLWGNHKNRVNMTYEKMSRALRHYYKLNIIKKEPGQKLLFRFLKTPGKMVQDKHSHLEPLESQEQDRIEFKDKRPEISP
Take B1: the binding result is recorded as “binds”.
